T1: Invertase (yeast) (Saccharomyces cerevisiae, UniProt P00724)
T1 sequence (P00724 20-532): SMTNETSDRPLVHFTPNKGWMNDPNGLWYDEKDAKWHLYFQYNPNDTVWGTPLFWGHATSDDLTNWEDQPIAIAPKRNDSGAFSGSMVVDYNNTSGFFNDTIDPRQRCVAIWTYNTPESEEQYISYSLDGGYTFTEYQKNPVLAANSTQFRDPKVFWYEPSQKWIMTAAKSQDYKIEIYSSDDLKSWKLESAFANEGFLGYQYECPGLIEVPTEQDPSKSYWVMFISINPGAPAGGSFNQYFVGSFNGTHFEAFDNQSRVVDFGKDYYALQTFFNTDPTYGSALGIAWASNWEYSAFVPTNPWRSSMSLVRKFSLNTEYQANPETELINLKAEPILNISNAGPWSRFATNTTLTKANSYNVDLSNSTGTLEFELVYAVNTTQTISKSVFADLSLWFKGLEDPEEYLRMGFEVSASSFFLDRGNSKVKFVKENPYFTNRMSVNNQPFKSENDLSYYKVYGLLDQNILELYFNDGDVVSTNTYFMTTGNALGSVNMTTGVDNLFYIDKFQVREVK


Columns and labels:
Assay in all cases: detection of glycoproteins by ELISA with biotin-labeled lectin
Format in all cases: binding
[1] = target: Blood serum albumin (bovine) (Bos taurus, UniProt P02769); conditions: (0) Blood serum albumin (bovine), No sugar chain; thyroglobulin value = 100%
Method: (§1) PTL of Example 1, SRL of Example 2, AAL of Comparison Example 1, AOL of Comparison Example 2, and LCA of Comparison Example 3 that were biotin-labeled were used to the detection of glycoproteins by the enzyme-linked immunosorbent assay (ELISA).
(§2) The glycoprotein and albumin as protein not including a sugar chain as a control were dissolved in 0.1 M carbonic acid buffer solution (pH 9.5) at 1 mg/ml. Then, the resultant solution was added to a microtiter plate (Nunc 439454) and was incubated at 4 degrees C. overnight. Then, the resultant solution was cleaned by 0.05% Tween/PBS three times. Thereafter, 1% BSA/PBS was added to wells and the solution was incubated at 37 degrees C. for one hour. Then, after the solution was cleaned by 0.05% Tween/PBS three times, biotin labeled-lectin appropriately diluted by 1% BSA/0.05% Tween/PBS was added to the wells and the solution was incubated at 37 degrees C. for one hour. After the solution was cleaned by 0.05% Tween/PBS three times, HRP labeled streptavidin solution diluted by 1% BSA/0.05% Tween/PBS was added to wells and the solution was incubated at 37 degrees C. for 30 minutes. After the solution was cleaned by 0.05% Tween/PBS three times, TMB Peroxidase substrate system (KPL) was added and the resultant solution was incubated at a room temperature for 10 minutes while light was being blocked.
(§3) The reaction was stopped by 1 M phosphoric acid. Then, a microplate reader (MPR-A4i, TOSOH CORPORATION) was used to measure the absorbance at 450 nm. Based on this value, reaction value ([absorbance at 450 nm of a well for which glycoprotein was solid-phased to the plate and reacted]−[absorbance at 450 nm of a well for which glycoprotein was not solid-phased to the plate and reacted] was calculated. Next, for each lectin, the interaction strength (relative value) to each glycoprotein was calculated based on an assumption that the glycoprotein (thyroglobulin) value was 100%. The calculation result is shown in Table 9 and FIG. 19 to FIG. 23.

[2] = tested on: Immune-globulin G (human); conditions: (3) Immune-globulin G (human), N-linked glycan having α1→6 L-fucose; thyroglobulin value = 100%
Method: as §1, §2, §3

Invertase (yeast) = target: T1, Invertase (yeast); conditions: (6) Invertase (yeast), High mannose-type glycan; thyroglobulin value = 100%
Method: as §1, §2, §3

Lactoferrin (human) = Lactoferrin (human) (Homo sapiens, UniProt P02788); conditions: (2) Lactoferrin (human), N-linked glycan chain having α1→6 L-fucose; thyroglobulin value = 100%
Method: as §1, §2, §3

Mucin (bovine) = conditions: (8) Mucin (bovine), O-linked glycan including L-fucose; thyroglobulin value = 100%
Method: as §1, §2, §3

Mucin (pig) = conditions: (7) Mucin (pig), O-linked glycan including L-fucose; thyroglobulin value = 100%
Method: as §1, §2, §3

Thyroglobulin (pig) = Thyroglobulin (pig) (Sus scrofa, UniProt F1RRV3); conditions: (1) Thyroglobulin (pig), N-linked glycan having α1→6 L-fucose; thyroglobulin value = 100%
Method: as §1, §2, §3

Transferrin (human) = Transferrin (human) (Homo sapiens, UniProt P02787); conditions: (4) Transferrin (human), N-linked glycan not including α1→6 L-fucose; thyroglobulin value = 100%
Method: as §1, §2, §3

[3] = tested on: α1-acidic glycoprotein (human); conditions: (5) α1-acidic glycoprotein (human), N-linked glycan having α1→3 L-fucose; thyroglobulin value = 100%
Method: as §1, §2, §3

Chain of Transferrin (human) (P02787 20-698): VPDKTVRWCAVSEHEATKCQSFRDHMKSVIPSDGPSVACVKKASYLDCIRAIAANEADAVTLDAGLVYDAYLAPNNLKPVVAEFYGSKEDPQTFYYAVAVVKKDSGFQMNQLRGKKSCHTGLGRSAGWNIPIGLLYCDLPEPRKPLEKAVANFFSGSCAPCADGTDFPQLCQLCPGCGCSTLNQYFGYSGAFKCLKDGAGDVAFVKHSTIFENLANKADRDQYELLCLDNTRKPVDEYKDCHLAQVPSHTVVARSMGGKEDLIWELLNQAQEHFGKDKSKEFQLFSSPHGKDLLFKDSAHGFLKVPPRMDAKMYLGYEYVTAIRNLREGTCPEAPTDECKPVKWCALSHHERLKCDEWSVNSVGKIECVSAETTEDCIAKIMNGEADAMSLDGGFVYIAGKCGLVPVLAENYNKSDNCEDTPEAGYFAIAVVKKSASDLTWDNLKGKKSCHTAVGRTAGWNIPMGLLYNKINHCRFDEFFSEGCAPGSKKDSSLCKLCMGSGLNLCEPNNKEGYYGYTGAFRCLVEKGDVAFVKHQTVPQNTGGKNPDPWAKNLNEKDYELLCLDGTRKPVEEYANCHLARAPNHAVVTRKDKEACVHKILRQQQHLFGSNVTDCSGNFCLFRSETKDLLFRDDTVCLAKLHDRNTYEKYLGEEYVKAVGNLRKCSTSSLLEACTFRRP
Chain of Blood serum albumin (bovine) (P02769 25-607): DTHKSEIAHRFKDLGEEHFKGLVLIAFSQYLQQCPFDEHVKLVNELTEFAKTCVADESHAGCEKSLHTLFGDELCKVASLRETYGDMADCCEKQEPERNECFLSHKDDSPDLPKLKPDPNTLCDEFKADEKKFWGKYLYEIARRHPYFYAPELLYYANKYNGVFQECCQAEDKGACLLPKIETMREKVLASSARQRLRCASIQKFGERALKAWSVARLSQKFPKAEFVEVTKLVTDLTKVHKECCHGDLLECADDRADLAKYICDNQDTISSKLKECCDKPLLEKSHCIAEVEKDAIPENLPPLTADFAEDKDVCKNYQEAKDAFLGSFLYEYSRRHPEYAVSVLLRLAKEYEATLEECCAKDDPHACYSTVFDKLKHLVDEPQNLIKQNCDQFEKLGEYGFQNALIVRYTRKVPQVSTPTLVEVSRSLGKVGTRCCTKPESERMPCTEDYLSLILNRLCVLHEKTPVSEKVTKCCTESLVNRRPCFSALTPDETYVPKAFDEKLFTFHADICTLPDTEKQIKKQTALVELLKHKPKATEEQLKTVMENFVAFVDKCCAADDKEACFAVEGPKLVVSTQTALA
Chain of Thyroglobulin (pig) (F1RRV3 20-2692): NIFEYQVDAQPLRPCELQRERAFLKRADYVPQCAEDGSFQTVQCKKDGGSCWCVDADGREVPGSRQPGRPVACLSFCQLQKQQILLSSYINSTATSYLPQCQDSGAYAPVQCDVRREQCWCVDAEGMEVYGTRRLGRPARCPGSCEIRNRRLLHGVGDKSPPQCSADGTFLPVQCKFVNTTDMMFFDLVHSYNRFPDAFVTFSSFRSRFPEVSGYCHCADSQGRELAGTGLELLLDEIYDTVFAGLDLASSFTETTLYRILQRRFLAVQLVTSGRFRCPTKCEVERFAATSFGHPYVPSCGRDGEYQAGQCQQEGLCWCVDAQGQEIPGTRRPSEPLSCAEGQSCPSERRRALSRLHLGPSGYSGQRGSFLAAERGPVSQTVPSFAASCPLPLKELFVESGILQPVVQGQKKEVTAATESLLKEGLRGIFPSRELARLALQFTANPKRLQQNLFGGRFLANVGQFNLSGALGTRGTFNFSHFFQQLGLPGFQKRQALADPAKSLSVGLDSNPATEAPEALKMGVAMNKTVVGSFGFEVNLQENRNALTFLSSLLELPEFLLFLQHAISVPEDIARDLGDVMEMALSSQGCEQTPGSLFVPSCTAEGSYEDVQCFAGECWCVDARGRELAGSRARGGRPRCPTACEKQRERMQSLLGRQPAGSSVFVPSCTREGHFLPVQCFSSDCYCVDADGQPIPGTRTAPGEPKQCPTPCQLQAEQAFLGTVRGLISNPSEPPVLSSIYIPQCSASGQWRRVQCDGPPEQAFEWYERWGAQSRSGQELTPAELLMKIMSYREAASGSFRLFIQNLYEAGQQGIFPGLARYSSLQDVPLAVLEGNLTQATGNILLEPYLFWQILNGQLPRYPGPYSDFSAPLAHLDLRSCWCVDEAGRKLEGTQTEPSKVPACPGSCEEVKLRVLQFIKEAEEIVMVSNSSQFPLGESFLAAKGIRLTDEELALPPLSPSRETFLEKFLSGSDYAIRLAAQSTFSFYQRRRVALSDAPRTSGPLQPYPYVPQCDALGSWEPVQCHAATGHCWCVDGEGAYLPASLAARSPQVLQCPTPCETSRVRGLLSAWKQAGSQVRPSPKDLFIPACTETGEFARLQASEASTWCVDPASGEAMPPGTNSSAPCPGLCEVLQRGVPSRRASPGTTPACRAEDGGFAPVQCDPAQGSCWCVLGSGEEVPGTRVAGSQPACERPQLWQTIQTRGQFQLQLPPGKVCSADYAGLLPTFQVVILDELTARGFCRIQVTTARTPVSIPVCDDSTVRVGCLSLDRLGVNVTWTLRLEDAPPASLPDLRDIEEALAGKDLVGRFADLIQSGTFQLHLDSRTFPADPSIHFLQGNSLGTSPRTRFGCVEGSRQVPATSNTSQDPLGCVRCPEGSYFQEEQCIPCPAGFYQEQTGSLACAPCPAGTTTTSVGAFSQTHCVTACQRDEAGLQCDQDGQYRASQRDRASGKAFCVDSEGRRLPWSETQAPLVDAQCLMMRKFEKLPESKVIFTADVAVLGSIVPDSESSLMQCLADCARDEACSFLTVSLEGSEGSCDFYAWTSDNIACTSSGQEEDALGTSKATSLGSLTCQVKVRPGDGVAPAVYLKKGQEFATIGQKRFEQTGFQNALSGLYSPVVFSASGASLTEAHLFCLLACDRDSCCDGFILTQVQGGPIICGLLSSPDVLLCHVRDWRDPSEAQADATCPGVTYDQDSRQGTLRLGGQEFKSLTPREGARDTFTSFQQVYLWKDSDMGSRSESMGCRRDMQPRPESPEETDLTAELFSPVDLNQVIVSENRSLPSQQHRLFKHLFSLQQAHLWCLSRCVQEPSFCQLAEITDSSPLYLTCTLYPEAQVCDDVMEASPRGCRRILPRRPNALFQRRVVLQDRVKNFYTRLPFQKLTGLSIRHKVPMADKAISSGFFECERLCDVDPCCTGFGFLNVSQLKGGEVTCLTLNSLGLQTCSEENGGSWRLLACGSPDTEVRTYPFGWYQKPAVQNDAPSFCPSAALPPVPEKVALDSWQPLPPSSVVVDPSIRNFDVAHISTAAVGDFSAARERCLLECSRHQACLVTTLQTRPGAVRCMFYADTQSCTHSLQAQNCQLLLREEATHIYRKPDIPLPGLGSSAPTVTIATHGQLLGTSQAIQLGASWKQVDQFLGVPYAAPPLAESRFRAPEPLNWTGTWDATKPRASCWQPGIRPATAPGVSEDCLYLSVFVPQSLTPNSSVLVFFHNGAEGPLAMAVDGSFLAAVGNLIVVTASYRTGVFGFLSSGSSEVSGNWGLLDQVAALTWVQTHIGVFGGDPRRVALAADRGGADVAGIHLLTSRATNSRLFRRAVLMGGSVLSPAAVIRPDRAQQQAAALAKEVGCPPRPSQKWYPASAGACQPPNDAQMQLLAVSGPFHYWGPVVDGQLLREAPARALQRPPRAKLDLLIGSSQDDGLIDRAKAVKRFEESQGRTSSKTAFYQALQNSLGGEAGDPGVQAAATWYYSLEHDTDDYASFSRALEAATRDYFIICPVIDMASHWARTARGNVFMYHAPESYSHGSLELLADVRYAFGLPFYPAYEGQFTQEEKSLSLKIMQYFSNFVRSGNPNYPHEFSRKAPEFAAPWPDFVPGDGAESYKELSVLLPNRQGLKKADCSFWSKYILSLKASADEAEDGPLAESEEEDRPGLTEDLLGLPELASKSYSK
Chain of Lactoferrin (human) (P02788 20-710): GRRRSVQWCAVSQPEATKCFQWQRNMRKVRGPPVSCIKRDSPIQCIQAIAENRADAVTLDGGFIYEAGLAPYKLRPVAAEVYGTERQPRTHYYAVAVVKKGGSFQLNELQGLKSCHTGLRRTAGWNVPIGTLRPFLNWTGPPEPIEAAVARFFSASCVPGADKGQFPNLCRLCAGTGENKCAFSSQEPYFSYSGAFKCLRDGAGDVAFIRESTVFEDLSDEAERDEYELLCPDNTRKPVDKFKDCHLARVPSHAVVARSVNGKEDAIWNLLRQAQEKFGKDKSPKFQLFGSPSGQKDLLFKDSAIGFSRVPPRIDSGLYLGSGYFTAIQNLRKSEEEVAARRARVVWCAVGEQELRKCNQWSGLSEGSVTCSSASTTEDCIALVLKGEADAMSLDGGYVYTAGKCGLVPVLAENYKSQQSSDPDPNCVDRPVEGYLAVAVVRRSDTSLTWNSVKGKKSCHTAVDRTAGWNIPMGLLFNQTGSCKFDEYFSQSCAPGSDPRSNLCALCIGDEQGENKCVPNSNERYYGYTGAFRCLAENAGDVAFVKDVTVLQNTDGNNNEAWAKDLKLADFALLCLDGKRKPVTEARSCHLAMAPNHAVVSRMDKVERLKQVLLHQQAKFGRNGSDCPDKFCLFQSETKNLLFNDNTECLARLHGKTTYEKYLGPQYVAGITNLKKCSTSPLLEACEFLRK

| Molecule | interaction strength (relative value) by ELISA [1] | interaction strength (relative value) by ELISA [2] | interaction strength (relative value) by ELISA (Invertase (yeast)) | interaction strength (relative value) by ELISA (Lactoferrin (human)) | interaction strength (relative value) by ELISA (Mucin (bovine)) | interaction strength (relative value) by ELISA (Mucin (pig)) | interaction strength (relative value) by ELISA (Thyroglobulin (pig)) | interaction strength (relative value) by ELISA (Transferrin (human)) | interaction strength (relative value) by ELISA [3] |
| --- | --- | --- | --- | --- | --- | --- | --- | --- | --- |
| Stropharia rugosoannulata lectin [SRL, novel L-fucose α1→6 specific lectin purified from the mushroom Stropharia rugosoannulata] | X (Relative values of 10 or less) | ◯ (Relative values of 80 to 50) | X (Relative values of 10 or less) | ◯ (Relative values of 80 to 50) | X (Relative values of 10 or less) | X (Relative values of 10 or less) | ⊚ (Relative values of 120 to 80) | X (Relative values of 10 or less) | X (Relative values of 10 or less) |
| Pholiota terrestris lectin [PTL, novel L-fucose α1→6 specific lectin purified from the mushroom Pholiota terrestris] | X (Relative values of 10 or less) | ⊚ (Relative values of 120 to 80) | X (Relative values of 10 or less) | ⊚ (Relative values of 120 to 80) | X (Relative values of 10 or less) | X (Relative values of 10 or less) | ⊚ (Relative values of 120 to 80) | X (Relative values of 10 or less) | X (Relative values of 10 or less) |
| Aspergillus oryzae lectin [AOL, reference compound] | X (Relative values of 10 or less) | Δ (Relative values of 50 to 10) | X (Relative values of 10 or less) | ◯ (Relative values of 80 to 50) | ⊚ (Relative values of 120 to 80) | ⊚ (Relative values of 120 to 80) | ⊚ (Relative values of 120 to 80) | X (Relative values of 10 or less) | Δ (Relative values of 50 to 10) |
| Aleuria aurantia lectin (protein) PTEFLYTSKIAAISWAATGGRQQRVYFQDLNGKIREAQRGGDNPWTGGSSQNVIGEAKLFSPLAAVTWKSAQGIQIRVYCVNKDNILSEFVYDGSKWITGQLGSVGVKVGSNSKLAALQWGGSESAPPNIRVYYQKSNGSGSSIHEYVWSGKWTAGASFGSTVPGTGIGATAIGPGRLRIYYQATDNKIREHCWDSNSWYVGGFSASASAGVSIAAISWGSTPNIRVYWQKGREELYEAAYGGSWNTPGQIKDASRPTPSLPDTFIAANSSGNIDISVFFQASGVSLQQWQWISGKGWSIGAVVPTGTPAGW | X (Relative values of 10 or less) | Δ (Relative values of 50 to 10) | X (Relative values of 10 or less) | ◯ (Relative values of 80 to 50) | ⊚ (Relative values of 120 to 80) | ⊚ (Relative values of 120 to 80) | ⊚ (Relative values of 120 to 80) | X (Relative values of 10 or less) | Δ (Relative values of 50 to 10) |
| Lens culinaris agglutinin (protein) chain 1: TETTSFSITKFSPDQKNLIFQGDGYTTKGKLTLTKAVKSTVGRALYSTPIHIWDRDTGNVANFVTSFTFVIDAPSSYNVADEFTFFIAPVDTKPQTGGGYLGVFNSKEYDKTSQTVAVEFDTFYNAAWDPSNKERHIGIDVNSIKSVNTKSWNLQNGERANVVIAFNAATNVLTVTLTYP chain 2: VTSYTLNEVVPLKDVVPEWVRIGFSATTGAEFAAHEVHSWSFHSELGGTSSS | X (Relative values of 10 or less) | ◯ (Relative values of 80 to 50) | X (Relative values of 10 or less) | ◯ (Relative values of 80 to 50) | X (Relative values of 10 or less) | X (Relative values of 10 or less) | ⊚ (Relative values of 120 to 80) | X (Relative values of 10 or less) | X (Relative values of 10 or less) |

From patent publication US8461305B2, “L-fucose α1→6 specific lectin” (J-Oil Mills, Inc., priority 2008, dated 2013)
